Assay results from patent publication US20110301093.

B1: Flag-tagged DAPk (protein)
chain: MTVFRQENVDDYYDTGEELGSGQFAVVKKCREKSTGLQYAAKFIKKRRTKSSRRGVSREDIEREVSILKEIQHPNVITLHEVYENKTDVILILELVAGGELFDFLAEKESLTEEEATEFLKQILNGVYYLHSLQIAHFDLKPENIMLLDRNVPKPRIKIIDFGLAHKIDFGNEFKNIFGTPEFVAPEIVNYEPLGLEADMWSIGVITYILLSGASPFLGDTKQETLANVSAVNYEFEDEYFSNTSALAKDFIRRLLVKDPKKRMTIQDSLQHPWIKPKDTQQALSRKASAVNMEKFKKFAARKKWKQSVRLISLCQRLSRSFLSRSNMSVARSDDTLDEEDSFVMKAIIHAINDDNVPGLQHLLGSLSNYDVNQPNKHGTPPLLIAAGCGNIQILQLLIKRGSRIDVQDKGGSNAVYWAARHGHVDTLKFLSENKCPLDVKDKSGEMALHVAARYGHADVAQLLCSFGSNPNIQDKEEETPLHCAAWHGYYSVAKALCEAGCNVNIKNREGETPLLTASARGYHDIVECLAEHGADLNACDKDGHIALHLAVRRCQMEVIKTLLSQGCFVDYQDRHGNTPLHVACKDGNMPIVVALCEANCNLDISNKYGRTPLHLAANNGILDVVRYLCLMGASVEALTTDGKTAEDLARSEQHEHVAGLLARLRKDTHRGLFIQQLRPTQNLQPRIKLKLFGHSGSGKTTLVESLKCGLLRSFFRRRRPRLSSTNSSRFPPSPLASKPTVSVSINNLYPGCENVSVRSRSMMFEPGLTKGMLEVFVAPTHHPHCSADDQSTKAIDIQNAYLNGVGDFSVWEFSGNPVYFCCYDYFAANDPTSIHVVVFSLEEPYEIQLNQVIFWLSFLKSLVPVEEPIAFGGKLKNPLQVVLVATHADIMNVPRPAGGEFGYDKDTSLLKEIRNRFGNDLHISNKLFVLDAGASGSKDMKVLRNHLQEIRSQIVSVCPPMTHLCEKIISTLPSWRKLNGPNQLMSLQQFVYDVQDQLNPLASEEDLRRIAQQLHSTGEINIMQSETVQDVLLLDPRWLCTNVLGKLLSVETPRALHHYRGRYTVEDIQRLVPDSDVEELLQILDAMDICARDLSSGTMVDVPALIKTDNLHRSWADEEDEVMVYGGVRIVPVEHLTPFPCGIFHKVQVNLCRWIHQQSTEGDADIRLWVNGCKLANRGAELLVLLVNHGQGIEVQVRGLETEKIKCCLLLDSVCSTIENVMATTLPGLLTVKHYLSPQQLREHHEPVMIYQPRDFFRAQTLKETSLTNTMGGYKESFSSIMCFGCHDVYSQASLGMDIHASDLNLLTRRKLSRLLDPPDPLGKDWCLLAMNLGLPDLVAKYNTSNGAPKDFLPSPLHALLREWTTYPESTVGTLMSKLRELGRRDAADFLLKASSVFKINLDGNGQEAYASSCNSGTSYNSISSVVSR
B2: DAPk's catalytic domain (DK1) (protein)
chain: MTVFRQENVDDYYDTGEELGSGQFAVVKKCREKSTGLQYAAKFIKKRRTKSSRRGVSREDIEREVSILKEIQHPNVITLHEVYENKTDVILILELVAGGELFDFLAEKESLTEEEATEFLKQILNGVYYLHSLQIAHFDLKPENIMLLDRNVPKPRIKIIDFGLAHKIDFGNEFKNIFGTPEFVAPEIVNYEPLGLEADMWSIGVITYILLSGASPFLGDTKQETLANVSAVNYEFEDEYFSNTSALAKDFIRRLLVKDPKKRMTIQDSLQHPWIKPKDTQQALS

How the values were obtained:
[1] = molecular target: GST-Beclin-1
[2] = molecular target: Flag-tagged Beclin-1
[3] = molecular target: T1, peptide corresponding to Beclin's BH3 domain (aa 108-127)
T1 chain: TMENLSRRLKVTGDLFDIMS

[4] = molecular target: T2, mutant BH3 peptide in which Thr119 was substituted to alanine (T119A)
T2 chain: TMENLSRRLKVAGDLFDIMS

Chain of Flag-tagged Beclin-1 (chain, as listed by the source): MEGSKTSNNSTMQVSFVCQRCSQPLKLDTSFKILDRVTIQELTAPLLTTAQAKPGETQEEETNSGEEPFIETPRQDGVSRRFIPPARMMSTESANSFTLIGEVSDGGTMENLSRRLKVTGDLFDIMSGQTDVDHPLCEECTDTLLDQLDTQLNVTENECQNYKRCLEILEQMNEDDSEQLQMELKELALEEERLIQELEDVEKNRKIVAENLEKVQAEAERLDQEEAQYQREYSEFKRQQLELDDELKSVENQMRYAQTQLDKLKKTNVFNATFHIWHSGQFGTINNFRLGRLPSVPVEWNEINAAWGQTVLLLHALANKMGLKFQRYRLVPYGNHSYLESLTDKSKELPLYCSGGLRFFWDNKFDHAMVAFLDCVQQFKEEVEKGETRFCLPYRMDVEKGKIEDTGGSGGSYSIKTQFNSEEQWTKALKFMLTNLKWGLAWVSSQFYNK
Chain of GST-Beclin-1 (chain, as listed by the source): as above

Protein | in vitro kinase assay, phosphorylation ([γ-33P]ATP, autoradiogram) [1] | in vitro kinase assay, phosphorylation ([γ-33P]ATP, autoradiogram) [2] | peptide phosphorylation, filter assay (total counts against substrate concentration) [3] | peptide phosphorylation, filter assay [4]
B1 | GST-Beclin-1, but not GST alone, was phosphorylated by DAPk | The phosphorylation by Flag-tagged (60 ng) DAPk was also observed when Flag-tagged Beclin-1 (250 ng), immunoprecipitated from HEK293T cells, was used as a substrate |  | 
B2 |  |  | DAPk phosphorylates Beclin's BH3 peptide in a dose-dependent manner | Changing Thr119 to alanine strongly inhibited the extent of peptide phosphorylation
